Assay results: patent US20220305136A1 (ASCENDIS PHARMA ONCOLOGY DIVISION A S, published 2022)

Molecular target: T1, human CTLA-4 (AA Ala37-Ser160)-Fc Tag fusion protein (human, UniProt P16410 37-160)
T1 construct: range 37-160; Bought reagent, coated on ELISA wells as the capture protein; also called AcroBiosystem catalog no; CT4-H5255; not shown: Fc Tag of the bought fusion protein
T1 sequence (looked up): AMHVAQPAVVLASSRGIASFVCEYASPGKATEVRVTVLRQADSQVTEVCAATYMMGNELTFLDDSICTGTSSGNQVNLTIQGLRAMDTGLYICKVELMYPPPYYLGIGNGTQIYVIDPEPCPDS
Test: in-house sandwich ELISA; CTLA-4-Fc coated on plate captures HHC^MET from rat plasma; read-out with rabbit anti-camelid VHH antibody-HRP
From the text: These solutions were used for the generation of a calibration curve.

B1: HHC^MET (VHH)
chain: EVQLVESGGGLVQAGGSLRLSCAASGGTFSFYGMGWFRQAPGKEQEFVADIRTSAGRTYYADSVKGRFTISRDNAKNTVYLQMNSLKPEDTAVYYCAAEMSGISGWDYWGQGTQVTVSSGGGGSGGGSEVQLVESGGGLVQAGGSLRLSCAASGGTFSFYGMGWFRQAPGKEQEFVADIRTSAGRTYYADSVKGRFTISRDNAKNTVYLQMNSLKPEDTAVYYCAAEMSGISGWDYWGQGTQVTVSS
notes: Custom made, expressed in E. coli; The assay measured free HHC^MET in rat plasma, either spiked in as standard or released from the hydrogel prodrug; also called HHC^MET-NH2
binding result: binds
